Assay results reported in US20150322163A1 (OREGON HEALTH AND SCIENCE UNIVERSITY, published 2015).

Key:
human factor XI = molecular target: T1, human factor XI (human, UniProt P03951 19-625); assay: Western blot of plasma
T1 construct: Disulfide-bonded homodimer of about 160 kDa; also called FXI; human FXI

Prekallikrein (PK) = Prekallikrein (PK) (UniProt P03952 20-638, limits assumed); assay: Western blot
baboon factor XI = baboon factor XI (baboon (Papio anubis)); assay: cell-based or functional assay

Sequence of Prekallikrein (PK) (P03952 20-638 limits assumed): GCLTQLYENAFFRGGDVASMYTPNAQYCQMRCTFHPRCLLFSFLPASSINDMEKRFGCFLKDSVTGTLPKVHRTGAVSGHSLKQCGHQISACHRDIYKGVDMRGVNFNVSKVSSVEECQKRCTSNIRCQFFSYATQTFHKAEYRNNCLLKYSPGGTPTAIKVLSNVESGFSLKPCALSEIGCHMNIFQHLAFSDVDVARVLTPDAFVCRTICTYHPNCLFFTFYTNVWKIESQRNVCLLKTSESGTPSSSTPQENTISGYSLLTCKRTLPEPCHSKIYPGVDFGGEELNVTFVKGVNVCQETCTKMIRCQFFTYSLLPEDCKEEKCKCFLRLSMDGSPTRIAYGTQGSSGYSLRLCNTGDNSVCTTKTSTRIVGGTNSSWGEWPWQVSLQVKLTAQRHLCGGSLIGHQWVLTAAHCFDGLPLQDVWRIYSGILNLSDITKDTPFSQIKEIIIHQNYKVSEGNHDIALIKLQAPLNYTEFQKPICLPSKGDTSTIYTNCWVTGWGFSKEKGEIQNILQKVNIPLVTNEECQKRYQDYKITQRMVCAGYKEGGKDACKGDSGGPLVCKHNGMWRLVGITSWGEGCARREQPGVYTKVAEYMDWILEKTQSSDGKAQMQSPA
T1 sequence (P03951 19-625 I95Y limits assumed): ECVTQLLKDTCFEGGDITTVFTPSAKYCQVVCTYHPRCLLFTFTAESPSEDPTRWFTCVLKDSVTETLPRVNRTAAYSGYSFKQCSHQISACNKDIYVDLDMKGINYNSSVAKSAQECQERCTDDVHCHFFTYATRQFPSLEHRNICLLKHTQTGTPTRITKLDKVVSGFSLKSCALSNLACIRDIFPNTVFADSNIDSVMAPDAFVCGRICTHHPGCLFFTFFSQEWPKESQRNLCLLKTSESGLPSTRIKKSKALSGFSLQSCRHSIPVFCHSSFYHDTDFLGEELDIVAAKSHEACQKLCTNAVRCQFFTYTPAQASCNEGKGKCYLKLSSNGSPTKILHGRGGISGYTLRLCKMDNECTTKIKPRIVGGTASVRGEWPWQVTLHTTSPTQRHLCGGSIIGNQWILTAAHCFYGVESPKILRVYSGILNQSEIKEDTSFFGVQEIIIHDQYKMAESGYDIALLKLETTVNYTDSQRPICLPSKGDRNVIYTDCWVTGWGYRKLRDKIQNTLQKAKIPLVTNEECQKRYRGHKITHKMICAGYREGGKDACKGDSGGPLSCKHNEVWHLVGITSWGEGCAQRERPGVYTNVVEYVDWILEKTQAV

B1: anti-factor XI monoclonal antibody 1A6 (aXIMab) (antibody, V domains shown)
VH: QVTLKESGPGILKPSQTLSLTCSFSGFSLSTSGMGVGWIRQPSGKGLEWLAHIWWDDDKYYNPSLKSQLTISKDTSRNQVFLKITSVDAADTATYYCARKRSSVVAHYYAMDYWGQGTSVTVSS
VL: DIVLTQSPASLAVSLGQRATISCKASQSVDYDGDSYLNWYQQKPGQPPKLLIYAASNLESGIPARFSGSGSGTDFTLNIHPVEEEDAATYYCQQSNGDPWTFGGGTKLEIK
notes: also called anti-FXI monoclonal antibody
Human factor XI
  binding result: binds
Prekallikrein (PK)
  binding result: no binding
Baboon factor XI
  IC50 in a clotting assay using FXI deficient human plasma with serial dilutions of NBP as standards: 2.5 nM
